The values below come from patent publication US20250277199, “NOVEL CRISPR-CAS NUCLEASES FROM METAGENOMES” (Brain Biotech AG, published 2025).

The target in this series is T1, BMC13 (uncultured bacterium (metagenome)).
T1 chain: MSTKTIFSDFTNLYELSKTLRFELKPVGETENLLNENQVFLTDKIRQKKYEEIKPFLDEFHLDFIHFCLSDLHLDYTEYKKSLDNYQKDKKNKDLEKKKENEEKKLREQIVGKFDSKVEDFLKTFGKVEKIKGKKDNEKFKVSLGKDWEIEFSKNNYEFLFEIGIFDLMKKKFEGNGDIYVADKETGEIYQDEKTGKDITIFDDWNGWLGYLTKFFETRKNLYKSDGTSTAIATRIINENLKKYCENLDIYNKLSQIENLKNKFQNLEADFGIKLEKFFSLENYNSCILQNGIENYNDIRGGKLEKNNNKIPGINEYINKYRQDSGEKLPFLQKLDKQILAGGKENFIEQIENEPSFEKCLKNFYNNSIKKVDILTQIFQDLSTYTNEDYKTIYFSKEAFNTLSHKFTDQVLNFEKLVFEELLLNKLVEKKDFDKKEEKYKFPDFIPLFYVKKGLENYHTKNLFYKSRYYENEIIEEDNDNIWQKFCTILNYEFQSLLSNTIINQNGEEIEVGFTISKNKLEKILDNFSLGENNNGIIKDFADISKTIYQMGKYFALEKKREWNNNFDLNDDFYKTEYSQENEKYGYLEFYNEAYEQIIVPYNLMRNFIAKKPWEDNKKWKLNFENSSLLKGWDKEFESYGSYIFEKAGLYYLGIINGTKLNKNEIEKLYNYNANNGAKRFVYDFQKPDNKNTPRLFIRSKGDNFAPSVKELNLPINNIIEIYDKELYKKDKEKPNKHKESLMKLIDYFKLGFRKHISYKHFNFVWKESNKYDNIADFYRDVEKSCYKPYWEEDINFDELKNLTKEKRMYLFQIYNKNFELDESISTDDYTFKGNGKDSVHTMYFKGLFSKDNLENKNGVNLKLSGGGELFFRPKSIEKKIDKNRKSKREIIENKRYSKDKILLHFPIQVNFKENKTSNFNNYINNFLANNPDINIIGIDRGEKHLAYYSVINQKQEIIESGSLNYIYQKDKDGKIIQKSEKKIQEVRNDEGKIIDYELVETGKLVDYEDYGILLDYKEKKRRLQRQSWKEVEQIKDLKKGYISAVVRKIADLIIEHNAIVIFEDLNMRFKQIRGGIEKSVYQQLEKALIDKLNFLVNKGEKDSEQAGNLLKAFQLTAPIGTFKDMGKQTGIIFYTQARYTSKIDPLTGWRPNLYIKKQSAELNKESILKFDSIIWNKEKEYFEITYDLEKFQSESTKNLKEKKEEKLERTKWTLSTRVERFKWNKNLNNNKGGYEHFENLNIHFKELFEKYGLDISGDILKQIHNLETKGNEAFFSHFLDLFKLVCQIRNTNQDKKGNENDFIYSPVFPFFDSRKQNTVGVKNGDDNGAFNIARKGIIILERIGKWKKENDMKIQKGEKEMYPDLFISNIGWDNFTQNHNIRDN
As to the kind of experiment: cell_activity; PAM not stated; E. coli depletion, 30 C. A digest of the protocol: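 E. coli carrying arabinose-induced (0.2%) BMC nuclease, grown at 30° C., made electrocompetent and electroporated with 50-100 ng plasmid carrying gRNA against malQ. Transformants plated on selective M9-glucose agar with kanamycin/ampicillin (± nourseothricin), and growth scored after 48 h at 30° C.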

B1: malQ gRNA (BMC stem-loop + 24 nt spacer) ; malQ protospacer (ssRNA ; dsDNA)
RNA: GAUUUCUACUAUUGUAGAUGUGGCGGUACGUUGAUGCAUCGCG
DNA 1: GTGGCGGTACGTTGATGCATCGCG
DNA 2: CGCGATGCATCAACGTACCGCCAC
B1 yielded an activity above 99.9 % colony reduction.
